This note sets out measurements from article PMC4018121.

This data set has as its target rhSTIP1 (stress-induced phosphoprotein 1) (Homo sapiens, UniProt P31948 1-543). The data set is described as follows: aptamer blot on nitrocellulose, chemiluminescence.

B1: TOV6 (structured_DNA)
DNA: ATCCAGAGTGACGCAGCACGGCACTCACTCTTTGTTAAGTGGTCTGCTTCTTAACCTTCATCGACACGGTGGCTTA
Regarding B1, the binding result was “binds”.
